# Laboratory results: patent US20260015399A1 (Boehringer Ingelheim, published 2026)
# *1 amine or outer side, *2 acyl side, *3 side chain or, on linkers, in order; H or OH if unused. Side-chain parts run from the residue outwards. The star is where a group is joined. C18 diacid = O=C(O)CCCCCCCCCCCCCCCCC(=O)*; γGlu = O=C(O)[C@H](CCC(=O)[*:2])N[*:1]; Isovaleryl = CC(C)CC(=O)*; Ahx = NCCCCCC(=O)O
# T1: human NPY2 receptor (human, UniProt P49146 1-381)
# T1 construct: whole, on cells; also called hNPY2-R; hNPY2R
# T1 sequence (looked up): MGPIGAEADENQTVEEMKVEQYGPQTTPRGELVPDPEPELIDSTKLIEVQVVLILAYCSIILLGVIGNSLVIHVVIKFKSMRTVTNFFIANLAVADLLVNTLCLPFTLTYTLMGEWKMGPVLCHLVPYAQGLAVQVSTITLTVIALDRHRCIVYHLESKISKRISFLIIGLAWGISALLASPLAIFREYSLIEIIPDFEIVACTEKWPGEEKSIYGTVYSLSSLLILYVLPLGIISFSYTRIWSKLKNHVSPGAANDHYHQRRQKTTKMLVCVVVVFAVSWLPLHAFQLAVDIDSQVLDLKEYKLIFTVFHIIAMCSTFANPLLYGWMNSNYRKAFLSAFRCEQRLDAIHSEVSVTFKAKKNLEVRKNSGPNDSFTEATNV
# Target: T1, human NPY2 receptor
# Assay: RLB: displacement of 125I-PYY(1-36) from hNPY2R membranes
row,Binder,Ki
1,Isovaleryl-APAK([Ahx-γGlu-C18 diacid])PEEDAEPEELQRYYVSLRHYYNWLTRQRY-NH2 (SMILES CC(C)CC(=O)N[C@@H](C)C(=O)N1CCC[C@H]1C(=O)N[C@@H](C)C(=O)N[C@@H](CCCCNC(=O)CCCCCNC(=O)CC[C@H](NC(=O)CCCCCCCCCCCCCCCCC(=O)O)C(=O)O)C(=O)N1CCC[C@H]1C(=O)N[C@@H](CCC(=O)O)C(=O)N[C@@H](CCC(=O)O)C(=O)N[C@@H](CC(=O)O)C(=O)N[C@@H](C)C(=O)N[C@@H](CCC(=O)O)C(=O)N1CCC[C@H]1C(=O)N[C@@H](CCC(=O)O)C(=O)N[C@@H](CCC(=O)O)C(=O)N[C@@H](CC(C)C)C(=O)N[C@@H](CCC(N)=O)C(=O)N[C@@H](CCCNC(=N)N)C(=O)N[C@@H](Cc1ccc(O)cc1)C(=O)N[C@@H](Cc1ccc(O)cc1)C(=O)N[C@H](C(=O)N[C@@H](CO)C(=O)N[C@@H](CC(C)C)C(=O)N[C@@H](CCCNC(=N)N)C(=O)N[C@@H](Cc1c[nH]cn1)C(=O)N[C@@H](Cc1ccc(O)cc1)C(=O)N[C@@H](Cc1ccc(O)cc1)C(=O)N[C@@H](CC(N)=O)C(=O)N[C@@H](Cc1c[nH]c2ccccc12)C(=O)N[C@@H](CC(C)C)C(=O)N[C@H](C(=O)N[C@@H](CCCNC(=N)N)C(=O)N[C@@H](CCC(N)=O)C(=O)N[C@@H](CCCNC(=N)N)C(=O)N[C@@H](Cc1ccc(O)cc1)C(N)=O)[C@@H](C)O)C(C)C) [Compound 133],4.68 nM
2,Isovaleryl-APEK([Ahx-γGlu-C18 diacid])PEAAAEPEEIQRYYVALRHYYNWLTRQRY-NH2 (SMILES CC[C@H](C)[C@H](NC(=O)[C@H](CCC(=O)O)NC(=O)[C@H](CCC(=O)O)NC(=O)[C@@H]1CCCN1C(=O)[C@H](CCC(=O)O)NC(=O)[C@H](C)NC(=O)[C@H](C)NC(=O)[C@H](C)NC(=O)[C@H](CCC(=O)O)NC(=O)[C@@H]1CCCN1C(=O)[C@H](CCCCNC(=O)CCCCCNC(=O)CC[C@H](NC(=O)CCCCCCCCCCCCCCCCC(=O)O)C(=O)O)NC(=O)[C@H](CCC(=O)O)NC(=O)[C@@H]1CCCN1C(=O)[C@H](C)NC(=O)CC(C)C)C(=O)N[C@@H](CCC(N)=O)C(=O)N[C@@H](CCCNC(=N)N)C(=O)N[C@@H](Cc1ccc(O)cc1)C(=O)N[C@@H](Cc1ccc(O)cc1)C(=O)N[C@H](C(=O)N[C@@H](C)C(=O)N[C@@H](CC(C)C)C(=O)N[C@@H](CCCNC(=N)N)C(=O)N[C@@H](Cc1c[nH]cn1)C(=O)N[C@@H](Cc1ccc(O)cc1)C(=O)N[C@@H](Cc1ccc(O)cc1)C(=O)N[C@@H](CC(N)=O)C(=O)N[C@@H](Cc1c[nH]c2ccccc12)C(=O)N[C@@H](CC(C)C)C(=O)N[C@H](C(=O)N[C@@H](CCCNC(=N)N)C(=O)N[C@@H](CCC(N)=O)C(=O)N[C@@H](CCCNC(=N)N)C(=O)N[C@@H](Cc1ccc(O)cc1)C(N)=O)[C@@H](C)O)C(C)C) [Compound 135],3.83 nM
3,Isovaleryl-APEK([Ahx-γGlu-C18 diacid])PEEDATPEELQRYYVSLRHYYNWLLRQRY-NH2 (SMILES CC(C)CC(=O)N[C@@H](C)C(=O)N1CCC[C@H]1C(=O)N[C@@H](CCC(=O)O)C(=O)N[C@@H](CCCCNC(=O)CCCCCNC(=O)CC[C@H](NC(=O)CCCCCCCCCCCCCCCCC(=O)O)C(=O)O)C(=O)N1CCC[C@H]1C(=O)N[C@@H](CCC(=O)O)C(=O)N[C@@H](CCC(=O)O)C(=O)N[C@@H](CC(=O)O)C(=O)N[C@@H](C)C(=O)N[C@H](C(=O)N1CCC[C@H]1C(=O)N[C@@H](CCC(=O)O)C(=O)N[C@@H](CCC(=O)O)C(=O)N[C@@H](CC(C)C)C(=O)N[C@@H](CCC(N)=O)C(=O)N[C@@H](CCCNC(=N)N)C(=O)N[C@@H](Cc1ccc(O)cc1)C(=O)N[C@@H](Cc1ccc(O)cc1)C(=O)N[C@H](C(=O)N[C@@H](CO)C(=O)N[C@@H](CC(C)C)C(=O)N[C@@H](CCCNC(=N)N)C(=O)N[C@@H](Cc1c[nH]cn1)C(=O)N[C@@H](Cc1ccc(O)cc1)C(=O)N[C@@H](Cc1ccc(O)cc1)C(=O)N[C@@H](CC(N)=O)C(=O)N[C@@H](Cc1c[nH]c2ccccc12)C(=O)N[C@@H](CC(C)C)C(=O)N[C@@H](CC(C)C)C(=O)N[C@@H](CCCNC(=N)N)C(=O)N[C@@H](CCC(N)=O)C(=O)N[C@@H](CCCNC(=N)N)C(=O)N[C@@H](Cc1ccc(O)cc1)C(N)=O)C(C)C)[C@@H](C)O) [Compound 137],49.6 nM

# Further lines, results first:
row,Ki,Binder
1,3.6 nM,Isovaleryl-APEK([Ahx-γGlu-C18 diacid])PEEEASPAELQRYYVSLRHYYNWLTRQRY-NH2 (SMILES CC(C)CC(=O)N[C@@H](C)C(=O)N1CCC[C@H]1C(=O)N[C@@H](CCC(=O)O)C(=O)N[C@@H](CCCCNC(=O)CCCCCNC(=O)CC[C@H](NC(=O)CCCCCCCCCCCCCCCCC(=O)O)C(=O)O)C(=O)N1CCC[C@H]1C(=O)N[C@@H](CCC(=O)O)C(=O)N[C@@H](CCC(=O)O)C(=O)N[C@@H](CCC(=O)O)C(=O)N[C@@H](C)C(=O)N[C@@H](CO)C(=O)N1CCC[C@H]1C(=O)N[C@@H](C)C(=O)N[C@@H](CCC(=O)O)C(=O)N[C@@H](CC(C)C)C(=O)N[C@@H](CCC(N)=O)C(=O)N[C@@H](CCCNC(=N)N)C(=O)N[C@@H](Cc1ccc(O)cc1)C(=O)N[C@@H](Cc1ccc(O)cc1)C(=O)N[C@H](C(=O)N[C@@H](CO)C(=O)N[C@@H](CC(C)C)C(=O)N[C@@H](CCCNC(=N)N)C(=O)N[C@@H](Cc1c[nH]cn1)C(=O)N[C@@H](Cc1ccc(O)cc1)C(=O)N[C@@H](Cc1ccc(O)cc1)C(=O)N[C@@H](CC(N)=O)C(=O)N[C@@H](Cc1c[nH]c2ccccc12)C(=O)N[C@@H](CC(C)C)C(=O)N[C@H](C(=O)N[C@@H](CCCNC(=N)N)C(=O)N[C@@H](CCC(N)=O)C(=O)N[C@@H](CCCNC(=N)N)C(=O)N[C@@H](Cc1ccc(O)cc1)C(N)=O)[C@@H](C)O)C(C)C) [Compound 139]
2,2.8 nM,Isovaleryl-APEK([Ahx-γGlu-C18 diacid])PEEDATPEEQQRYYVSLRHYYNWLTRQRY-NH2 (SMILES CC(C)CC(=O)N[C@@H](C)C(=O)N1CCC[C@H]1C(=O)N[C@@H](CCC(=O)O)C(=O)N[C@@H](CCCCNC(=O)CCCCCNC(=O)CC[C@H](NC(=O)CCCCCCCCCCCCCCCCC(=O)O)C(=O)O)C(=O)N1CCC[C@H]1C(=O)N[C@@H](CCC(=O)O)C(=O)N[C@@H](CCC(=O)O)C(=O)N[C@@H](CC(=O)O)C(=O)N[C@@H](C)C(=O)N[C@H](C(=O)N1CCC[C@H]1C(=O)N[C@@H](CCC(=O)O)C(=O)N[C@@H](CCC(=O)O)C(=O)N[C@@H](CCC(N)=O)C(=O)N[C@@H](CCC(N)=O)C(=O)N[C@@H](CCCNC(=N)N)C(=O)N[C@@H](Cc1ccc(O)cc1)C(=O)N[C@@H](Cc1ccc(O)cc1)C(=O)N[C@H](C(=O)N[C@@H](CO)C(=O)N[C@@H](CC(C)C)C(=O)N[C@@H](CCCNC(=N)N)C(=O)N[C@@H](Cc1c[nH]cn1)C(=O)N[C@@H](Cc1ccc(O)cc1)C(=O)N[C@@H](Cc1ccc(O)cc1)C(=O)N[C@@H](CC(N)=O)C(=O)N[C@@H](Cc1c[nH]c2ccccc12)C(=O)N[C@@H](CC(C)C)C(=O)N[C@H](C(=O)N[C@@H](CCCNC(=N)N)C(=O)N[C@@H](CCC(N)=O)C(=O)N[C@@H](CCCNC(=N)N)C(=O)N[C@@H](Cc1ccc(O)cc1)C(N)=O)[C@@H](C)O)C(C)C)[C@@H](C)O) [Compound 134]
3,12.5 nM,Isovaleryl-APEK([Ahx-γGlu-C18 diacid])PEEDAEPEELQEYYVSLRHYYNWLTRQRY-NH2 (SMILES CC(C)CC(=O)N[C@@H](C)C(=O)N1CCC[C@H]1C(=O)N[C@@H](CCC(=O)O)C(=O)N[C@@H](CCCCNC(=O)CCCCCNC(=O)CC[C@H](NC(=O)CCCCCCCCCCCCCCCCC(=O)O)C(=O)O)C(=O)N1CCC[C@H]1C(=O)N[C@@H](CCC(=O)O)C(=O)N[C@@H](CCC(=O)O)C(=O)N[C@@H](CC(=O)O)C(=O)N[C@@H](C)C(=O)N[C@@H](CCC(=O)O)C(=O)N1CCC[C@H]1C(=O)N[C@@H](CCC(=O)O)C(=O)N[C@@H](CCC(=O)O)C(=O)N[C@@H](CC(C)C)C(=O)N[C@@H](CCC(N)=O)C(=O)N[C@@H](CCC(=O)O)C(=O)N[C@@H](Cc1ccc(O)cc1)C(=O)N[C@@H](Cc1ccc(O)cc1)C(=O)N[C@H](C(=O)N[C@@H](CO)C(=O)N[C@@H](CC(C)C)C(=O)N[C@@H](CCCNC(=N)N)C(=O)N[C@@H](Cc1c[nH]cn1)C(=O)N[C@@H](Cc1ccc(O)cc1)C(=O)N[C@@H](Cc1ccc(O)cc1)C(=O)N[C@@H](CC(N)=O)C(=O)N[C@@H](Cc1c[nH]c2ccccc12)C(=O)N[C@@H](CC(C)C)C(=O)N[C@H](C(=O)N[C@@H](CCCNC(=N)N)C(=O)N[C@@H](CCC(N)=O)C(=O)N[C@@H](CCCNC(=N)N)C(=O)N[C@@H](Cc1ccc(O)cc1)C(N)=O)[C@@H](C)O)C(C)C) [Compound 138]
